Data as given in paper PMC5750214.

Tests used:
[1] = target: mouse aortic AT1a receptor (mouse (endogenous in aorta)) (UniProt P29754); test: radioligand binding; saturation: [125I]-Ang II on the aortic membrane fraction of WT mice with HHcy (fed Hcy); non-specific binding subtracted
[2] = target: mouse aortic AT1a receptor (mouse (endogenous in aorta)) (UniProt P29754); test: radioligand binding; saturation: [125I]-Ang II on the aortic membrane fraction of WT control mice; non-specific binding subtracted

mouse aortic AT1a receptor (mouse (endogenous in aorta)), sequence (P29754 whole entry): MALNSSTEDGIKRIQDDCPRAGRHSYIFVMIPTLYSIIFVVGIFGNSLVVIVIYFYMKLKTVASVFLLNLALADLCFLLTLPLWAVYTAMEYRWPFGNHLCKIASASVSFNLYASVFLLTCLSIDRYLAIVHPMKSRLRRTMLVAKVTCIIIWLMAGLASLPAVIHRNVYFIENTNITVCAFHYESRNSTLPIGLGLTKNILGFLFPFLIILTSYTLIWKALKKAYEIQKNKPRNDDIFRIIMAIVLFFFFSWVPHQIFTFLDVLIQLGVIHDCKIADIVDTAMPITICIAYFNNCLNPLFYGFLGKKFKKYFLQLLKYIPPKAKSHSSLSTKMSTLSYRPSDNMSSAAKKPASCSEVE

Kd [1]: 43.2 nM
Kd [2]: 36.4 nM
Substance: [125I]-Angiotensin II (peptide)
